Tests used:
[1] = molecular target: L127E ArdA (Streptococcus faecalis (Tn916 conjugative transposon)); experiment: AUC; sedimentation equilibrium at 15 μM (monomers); 17 000, 27 000 and 35 000 r.p.m.; 20 °C; 200 mM NaCl, 20 mM Tris, 20 mM MES, 1 mM TCEP, pH 6.5; SEDPHAT; dimer to monomers
[2] = molecular target: EcoKI Type I RM enzyme (E. coli (endogenous in E. coli NM1049(DE3))) (UniProt P08956)
[3] = molecular target: WT ORF18 ArdA (Streptococcus faecalis (Tn916 conjugative transposon)); experiment: AUC; sedimentation equilibrium at 15 μM (monomers); 17 000, 27 000 and 35 000 r.p.m.; 20 °C; 200 mM NaCl, 20 mM Tris, 20 mM MES, 1 mM TCEP, pH 6.5; SEDPHAT; dimer to monomers
[4] = molecular target: WT ORF18 ArdA (Streptococcus faecalis (Tn916 conjugative transposon)); experiment: AUC; sedimentation equilibrium at 3.0 μM and 0.6 μM (monomers); 17 000, 27 000 and 35 000 r.p.m.; 20 °C; 200 mM NaCl, 20 mM Tris, 20 mM MES, 1 mM TCEP, pH 6.5; SEDPHAT

Substance	Kd [1] [µM]	stoichiometry N [1]	antimodification in vivo: titre ratio of phage λv.0 recovered from E. coli NM1049(DE3) expressing the ArdA protein (WT ORF18 ArdA 122.0; vector 0.9) [2]	stoichiometry N [3]	stoichiometry N [4]
L127E ArdA (natural protein)	10	2	1		
WT ORF18 ArdA (natural protein)				2	2
